Residue numbers refer to the chain shown, from its start.
Key:
[1] = target: T1, IL-10Rα.G7.A3 I-OnuI homing endonuclease variant (Artificial (Ophiostoma novo-ulmi I-OnuI …)); assay: cell_activity; chromosomal mCherry reporter in HEK 293T; variant isolated by display sorting under 50 pM affinity conditions
T1 chain: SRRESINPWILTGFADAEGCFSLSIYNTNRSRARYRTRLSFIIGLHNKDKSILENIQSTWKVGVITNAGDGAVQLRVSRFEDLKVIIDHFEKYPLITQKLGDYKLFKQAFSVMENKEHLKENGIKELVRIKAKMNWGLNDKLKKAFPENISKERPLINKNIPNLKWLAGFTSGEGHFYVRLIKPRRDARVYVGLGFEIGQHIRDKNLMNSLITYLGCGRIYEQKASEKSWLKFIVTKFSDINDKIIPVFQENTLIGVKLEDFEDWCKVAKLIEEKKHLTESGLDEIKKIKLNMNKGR
Description: The activity of reprogrammed I-OnuI HEs that target exon 2 of the IL-10Rα gene was measured using a chromosomally integrated fluorescent reporter system (Certo et. al., 2011). Fully reprogrammed I-OnuI HEs that bind and cleave the IL-10Rα target sequence were cloned into mammalian expression plasmids and then individually transfected into a HEK 293T […] cell line that was reprogrammed to contain the IL-10Rα target sequence upstream of an out-of-frame gene encoding the fluorescent mCherry protein. Cleavage of the embedded target site by the HE and the subsequent accumulation of small insertions or deletions, caused by DNA repair via the non-homologous end joining (NHEJ) pathway, results in approximately one out of three repaired loci placing the fluorescent reporter gene back “in-frame”. mCherry fluorescence is therefore a readout of endonuclease activity at the chromosomally embedded target sequence. […] FIG. 3.
A secondary I-OnuI variant library was generated by performing random mutagenesis on one of the reprogrammed I-OnuI HEs that targets the IL-10Rα target site, identified in the initial reporter screen (IL-10Rα.G7, SEQ ID NO: 6). In addition, display-based flow sorting was performed under more stringent affinity conditions (50 pM) to isolate variants with improved binding characteristics. FIG. 3. […]

[2] = target: T2, IL-10Rα.G7.A3.G7 I-OnuI homing endonuclease variant (Artificial (Ophiostoma novo-ulmi I-OnuI …)); assay: flow; yeast surface display substrate titration; stated as sub-nanomolar affinity, exact value only in figure; details: tags: yeast surface display
T2 chain: T1 chain with N55S, H176Y

B1: IL-10Rα exon 2 HE target site (dsDNA)
DNA 1: GGTGGAAAAATTCTGCTTCAAA
DNA 2: TTTGAAGCAGAATTTTTCCACC
Q: B1 was tested. Which activity [1] did it give?
A: The activity was ~2 fold vs IL-10Rα.G7.

Q: And the Kd [2]?
A: Its Kd is < 1 nM.

From patent publication US20190309274, “IL-10 RECEPTOR ALPHA HOMING ENDONUCLEASE VARIANTS, COMPOSITIONS, AND METHODS OF USE” (bluebird bio, Inc., published 2019)
